Data published in patent publication US20190194358A1 (ARIZONA BOARD OF REGENTS A BODY CORPORATE OF THE STATE OF …, published 2019).
Ends that are not written are not given here.

Key:
[1] = target: T1, ACTC (human, UniProt P68032); assay: Invitrogen ProtoArray Human Protein Microarray v4.0; biotinylated synbody, fluorescently labelled streptavidin; fluorescence intensity above background
T1 construct: GST fusion on the array
Description: (§1) The prescribed cover slip was placed over the array and adjusted to remove air bubbles. The array was incubated in a 50 ml conical tube, printed side up, for 1.5 hours at 4 C without shaking. The array was then removed from the conical tube inserted diagonally into the array chamber, kept on ice. 8 ml probing buffer was added to the chamber wall. The cover slip was removed and the array was incubated in probing buffer for 1 minute on ice. The probing buffer was decanted and drained. Two further washings were performed adding 8 ml probing buffer, incubating on ice for 1 minute, and decanting and draining. 5 nM fluorescently labeled streptavidin diluted in 6 ml probing buffer was incubated on the array for 30 minutes on ice in the dark, after which the solution was decanted and drained. Three wash steps were performed, each by adding 8 ml probing buffer, incubating for 1 minute on ice, decanting, and draining. The array was removed from the chamber, centrifuged at 800×g for 5 minutes at room temperature. The array was dried in the dark for 60 minutes at room temperature, after which it was scanned using a fluorescent microarray scanner and data was taken and analyzed.

[2] = target: T2, HTN1 (human, UniProt P15515, limits assumed); assay: as above
T2 construct: GST fusion on the array
T2 chain (looked up): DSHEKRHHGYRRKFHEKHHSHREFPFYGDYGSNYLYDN
Description: as §1

[3] = target: T3, MCCC1 (human, UniProt Q96RQ3); assay: as above
T3 construct: GST fusion on the array
T3 sequence (looked up): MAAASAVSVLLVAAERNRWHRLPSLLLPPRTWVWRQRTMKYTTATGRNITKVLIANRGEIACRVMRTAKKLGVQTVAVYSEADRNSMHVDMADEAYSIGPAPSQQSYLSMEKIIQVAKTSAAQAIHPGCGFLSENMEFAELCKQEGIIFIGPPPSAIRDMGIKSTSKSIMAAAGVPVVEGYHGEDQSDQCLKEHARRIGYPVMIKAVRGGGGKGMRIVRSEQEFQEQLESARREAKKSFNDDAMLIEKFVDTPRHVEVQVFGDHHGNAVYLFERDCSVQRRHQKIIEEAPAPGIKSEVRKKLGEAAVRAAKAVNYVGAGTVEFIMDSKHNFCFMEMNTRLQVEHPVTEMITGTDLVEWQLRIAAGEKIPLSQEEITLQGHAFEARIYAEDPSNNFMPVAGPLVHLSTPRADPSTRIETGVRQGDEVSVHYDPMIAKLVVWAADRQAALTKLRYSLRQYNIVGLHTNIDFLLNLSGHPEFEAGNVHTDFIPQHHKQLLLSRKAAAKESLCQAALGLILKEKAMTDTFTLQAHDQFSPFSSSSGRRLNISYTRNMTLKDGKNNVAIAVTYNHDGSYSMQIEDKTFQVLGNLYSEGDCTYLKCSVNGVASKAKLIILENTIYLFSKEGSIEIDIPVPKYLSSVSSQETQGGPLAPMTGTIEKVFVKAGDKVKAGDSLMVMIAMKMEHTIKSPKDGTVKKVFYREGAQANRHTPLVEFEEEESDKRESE
Description: as §1

[4] = target: T4, CLEC1 (human, UniProt Q8NC01); assay: as above
T4 construct: GST fusion on the array
T4 sequence (looked up): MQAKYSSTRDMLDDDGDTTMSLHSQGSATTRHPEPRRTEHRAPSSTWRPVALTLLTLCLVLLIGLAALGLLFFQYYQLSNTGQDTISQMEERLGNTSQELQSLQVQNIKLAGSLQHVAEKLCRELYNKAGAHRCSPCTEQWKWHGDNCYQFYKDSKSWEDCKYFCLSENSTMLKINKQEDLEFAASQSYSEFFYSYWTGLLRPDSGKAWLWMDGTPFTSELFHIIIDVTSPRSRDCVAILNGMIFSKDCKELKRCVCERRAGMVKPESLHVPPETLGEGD
Description: as §1

[5] = target: T5, transferrin (human, UniProt P02787 20-698); assay: SPR
T5 construct: also called TRF; pooled human transferrin (Sigma)
T5 sequence (P02787 20-698 limits assumed): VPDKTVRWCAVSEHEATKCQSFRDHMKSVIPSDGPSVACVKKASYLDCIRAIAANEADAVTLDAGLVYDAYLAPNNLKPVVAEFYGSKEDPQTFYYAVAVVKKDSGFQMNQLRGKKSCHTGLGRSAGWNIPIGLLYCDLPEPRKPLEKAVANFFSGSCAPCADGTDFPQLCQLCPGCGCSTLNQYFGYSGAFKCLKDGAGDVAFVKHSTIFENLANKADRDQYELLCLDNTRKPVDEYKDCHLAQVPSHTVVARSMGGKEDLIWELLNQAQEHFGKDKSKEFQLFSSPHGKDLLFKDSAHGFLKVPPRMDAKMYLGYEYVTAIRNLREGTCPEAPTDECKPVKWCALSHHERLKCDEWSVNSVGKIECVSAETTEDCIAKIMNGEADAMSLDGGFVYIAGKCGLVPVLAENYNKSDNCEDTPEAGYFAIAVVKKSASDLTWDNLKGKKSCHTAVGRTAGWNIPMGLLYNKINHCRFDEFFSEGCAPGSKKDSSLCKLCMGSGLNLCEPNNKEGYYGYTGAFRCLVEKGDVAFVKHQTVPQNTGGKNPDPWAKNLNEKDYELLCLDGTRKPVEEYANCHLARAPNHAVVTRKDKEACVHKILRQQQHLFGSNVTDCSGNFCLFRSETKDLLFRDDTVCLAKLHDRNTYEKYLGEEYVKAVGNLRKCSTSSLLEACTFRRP

[6] = target: T6, AKT1 (human, UniProt P31749 1-480, limits assumed); assay: SPR
T6 construct: GST fusion on the Protoarray; also called AKT1_HUMAN; human AKT1
T6 sequence (P31749 whole entry, the tested form may be a part): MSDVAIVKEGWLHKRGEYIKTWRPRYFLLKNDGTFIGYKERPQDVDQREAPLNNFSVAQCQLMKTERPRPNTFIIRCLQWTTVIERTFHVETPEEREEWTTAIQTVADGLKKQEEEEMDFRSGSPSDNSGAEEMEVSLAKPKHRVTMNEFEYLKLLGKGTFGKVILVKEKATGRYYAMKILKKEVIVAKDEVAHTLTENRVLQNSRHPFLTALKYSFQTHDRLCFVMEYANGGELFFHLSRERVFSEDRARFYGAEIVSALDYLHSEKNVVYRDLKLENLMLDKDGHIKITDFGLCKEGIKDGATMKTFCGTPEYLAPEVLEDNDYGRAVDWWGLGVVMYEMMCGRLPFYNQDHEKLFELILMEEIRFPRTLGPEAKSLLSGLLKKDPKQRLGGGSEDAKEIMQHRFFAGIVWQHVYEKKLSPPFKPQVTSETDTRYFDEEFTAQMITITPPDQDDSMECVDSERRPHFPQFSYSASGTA

B1: SYN23-26 (designed binder)
peptide 1: AHKVVPQRQIRHAYNRYGSG
peptide 2: FRGWAHIFFGPHVIYRGGSG
modifications: also: two chains joined by their C-termini to a branching Lys (epsilon/alpha N), Lys linker followed by Cys, Cys thiol biotinylated
notes: Lysine linker followed by cysteine; the thiol of the cysteine biotinylated for the protein array; also called anti-TRF synbody
[1]
  binding result: binds
[2]
  binding result: binds
[3]
  binding result: binds
[4]
  binding result: binds
[5]
  Kd: ~141 nM
[6]
  Kd: ~1 nM
